Key:
IL-6 mRNA [1] = assay: IL-6 mRNA expression by real-time PCR, bleomycin model, plasminogen combined with pirfenidone (Example 3); assay type: in vivo, mouse
Method: (§1) Male C57BL6 mice are administered intratracheal instillation of bleomycin sulphate (0.007 mg/mouse) at day 0. Human plasminogen was administered subcutaneously at day 10 and day 14, at a dose of either 6 mg/kg, 20 mg/kg, or 60 mg/kg. Animals were sacrificed at day 21. Collagen was quantified by histologic analysis using the staining Red sirus staining (Fluorescence) and analysed at a magnification of 400×. Collagen quantification was performed by segmentation with Image Pro Premier software, and using a sample of 20 fields located in the inflammatory lesions of the lungs. The quantity of collagen has been reported for the total surface of the regions containing inflammatory lesions. This method of quantification allows exclusion of the endogenous content of collagen that is normally contained in the tissue. […] CTGF, IL-6 and PAI-1 mRNA expressions were quantified by real-time PCR using mouse Taqman® Gene-Expression assay normalized to HPRT1 endogenous control (Student's t-test).
(§2) Pulmonary fibrosis in mice is induced by intratracheal instillation of the anticancer drug bleomycin into the mouse. […] Collagen was quantified by histologic analysis using the staining Red sirus staining (Fluorescence) and analysed as described in Example 2. IL-6 mRNA expression was quantified by real-time PCR using mouse Taqman® Gene-Expression assay normalized to HPRT1 endogenous control (Student's t-test).

[2] = test system: collagen in the inflammatory lesions of the lungs; assay: Collagen quantification in inflammatory lesions of the lungs, bleomycin model, plasminogen combined with pirfenidone (Example 3); assay type: in vivo, mouse; conditions: bleomycin-induced mice, day 28, FIG. 8
Method: as §1, §2

IL-6 mRNA [3] = assay: IL-6 mRNA expression by real-time PCR, bleomycin-induced pulmonary fibrosis mouse model (Example 2); assay type: in vivo; conditions: human plasminogen 6, 20 or 60 mg/kg subcutaneously at day 10 and day 14; bleomycin-induced mice; day 21; not dose-dependent; FIG. 6
Excerpt: (§3) Pulmonary fibrosis in mice is induced by intratracheal instillation of bleomycin into the mouse. Bleomycin is well-known anticancer drug. First, the bleomycin insult results in an acute inflammation as soon as day 1. Later at about day 10 to day 14, fibrotic events arise and create a chronic fibrotic condition. The bleomycin-induced mice is recognized as an animal model for pulmonary fibrosis. The evaluation of the activity of plasminogen is undertaken by treatment of the mice with plasminogen at appropriate time points. In the present study, plasminogen was administered at day 10 and day 14.
(§4) Male C57BL6 mice are administered intratracheal instillation of bleomycin sulphate (0.007 mg/mouse) at day 0. Human plasminogen was administered subcutaneously at day 10 and day 14, at a dose of either 6 mg/kg, 20 mg/kg, or 60 mg/kg. […] Collagen was quantified by histologic analysis using the staining Red sirus staining (Fluorescence) and analysed at a magnification of 400×. Collagen quantification was performed by segmentation with Image Pro Premier software, and using a sample of 20 fields located in the inflammatory lesions of the lungs. The quantity of collagen has been reported for the total surface of the regions containing inflammatory lesions. This method of quantification allows exclusion of the endogenous content of collagen that is normally contained in the tissue. […]

CTGF mRNA = CTGF mRNA expression by real-time PCR, bleomycin-induced pulmonary fibrosis mouse model (Example 2); assay type: in vivo; conditions: human plasminogen 6, 20 or 60 mg/kg subcutaneously at day 10 and day 14; bleomycin-induced mice; day 21; not dose-dependent; FIG. 5
Excerpt: as §3, §4

PAI-1 mRNA = PAI-1 mRNA expression by real-time PCR, bleomycin-induced pulmonary fibrosis mouse model (Example 2); assay type: in vivo; conditions: human plasminogen at all doses (6, 20, 60 mg/kg) subcutaneously at day 10 and day 14; bleomycin-induced mice; day 21; FIG. 7
Excerpt: as §3, §4

[4] = test system: collagen in the inflammatory lesions of the lungs; assay: Collagen quantification in inflammatory lesions of the lungs, bleomycin-induced pulmonary fibrosis mouse model (Example 2); assay type: in vivo; conditions: human plasminogen 60 mg/kg subcutaneously at day 10 and day 14; bleomycin-induced mice; measured at day 21; FIG. 4
Excerpt: as §3, §4

Row | Molecule | IL-6 expression versus non-treated bleomycin-induced mice (IL-6 mRNA [1]; pirfenidone alone, 400 mg/kg oral once a day from day 7 to day 27, day 28, FIG. 9) | fibrosis (collagen expression in the inflammatory lesions of the lungs) ([2]; pirfenidone alone, 400 mg/kg oral once a day from day 7 to day 27) | IL-6 mRNA expression (IL-6 mRNA [3]) | mRNA expression of CTGF (CTGF mRNA) | IL-6 mRNA expression (IL-6 mRNA [1]; murine plasminogen alone, 6 mg/kg subcutaneously at days 7, 10, 13, 16, 19 and 23, bleomycin-induced mice, day 28, FIG. 9) | fibrosis (collagen expression in the inflammatory lesions of the lungs) ([2]; murine plasminogen alone, 6 mg/kg subcutaneously at days 7, 10, 13, 16, 19 and 23) | PAI-1 mRNA expression (overexpression of PAI-1 in lungs) (PAI-1 mRNA) | collagen expression in the inflammatory lesions [4]
1 | Cc1ccc(=O)n(-c2ccccc2)c1 [pirfenidone, reference compound] | not significantly different | efficient to reduce fibrosis | – | – | – | – | – | –
2 | plasminogen: Glu-plasminogen purified from pooled human plasma, purity above 95%; used in Example 2 (protein, UniProt P00747 20-810, looked up) Plasminogen: EPLDDYVNTQGASLFSVTKKQLGAGSIEECAAKCEEDEEFTCRAFQYHSKEQQCVIMAENRKSSIIIRMRDVVLFEKKVYLSECKTGNGKNYRGTMSKTKNGITCQKWSSTSPHRPRFSPATHPSEGLEENYCRNPDNDPQGPWCYTTDPEKRYDYCDILECEEECMHCSGENYDGKISKTMSGLECQAWDSQSPHAHGYIPSKFPNKNLKKNYCRNPDRELRPWCFTTDPNKRWELCDIPRCTTPPPSSGPTYQCLKGTGENYRGNVAVTVSGHTCQHWSAQTPHTHNRTPENFPCKNLDENYCRNPDGKRAPWCHTTNSQVRWEYCKIPSCDSSPVSTEQLAPTAPPELTPVVQDCYHGDGQSYRGTSSTTTTGKKCQSWSSMTPHRHQKTPENYPNAGLTMNYCRNPDADKGPWCFTTDPSVRWEYCNLKKCSGTEASVVAPPPVVLLPDVETPSEEDCMFGNGKGYRGKRATTVTGTPCQDWAAQEPHRHSIFTPETNPRAGLEKNYCRNPDGDVGGPWCYTTNPRKLYDYCDVPQCAAPSFDCGKPQVEPKKCPGRVVGGCVAHPHSWPWQVSLRTRFGMHFCGGTLISPEWVLTAAHCLEKSPRPSSYKVILGAHQEVNLEPHVQEIEVSRLFLEPTRKDIALLKLSSPAVITDKVIPACLPSPNYVVADRTECFITGWGETQGTFGAGLLKEAQLPVIENKVCNRYEFLNGRVQSTELCAGHLAGGTDSCQGDSGGPLVCFEKDKYILQGVTSWGLGCARPNKPGVYVRVSRFVTWIEGVMRNN | – | – | significantly reduced | significantly reduced | inhibits IL-6 mRNA expression | efficient to reduce fibrosis | reduced | significantly reduced
